Assay results reported in patent US20210379110A1 (LENTIGEN TECHNOLOGY, published 2021).
Positions count from the first letter of the chain named.

Target: T1, recombinant human CD19 (labeled) (human, UniProt P15391 20-291, limits assumed)
T1 construct: Fluorescently labeled antigen titrated on yeast; The sorting steps used CD19-Fc/Anti-Hu-Fc, so the labeled antigen may be the Fc fusion; also called labeled CD19; recombinant human CD19 protein
T1 sequence (looked up): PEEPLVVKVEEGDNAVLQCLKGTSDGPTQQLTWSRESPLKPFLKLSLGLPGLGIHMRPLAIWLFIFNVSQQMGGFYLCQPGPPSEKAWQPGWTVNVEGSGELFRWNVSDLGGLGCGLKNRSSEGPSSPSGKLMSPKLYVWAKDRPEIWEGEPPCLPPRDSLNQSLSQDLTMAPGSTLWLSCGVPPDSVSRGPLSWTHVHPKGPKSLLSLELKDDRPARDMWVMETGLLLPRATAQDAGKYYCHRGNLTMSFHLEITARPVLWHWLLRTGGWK
Test: flow cytometry of yeast-displayed scFv with decreasing amounts of labeled CD19
Description: To increase the affinity of m19217, a yeast-display m19217 mutant scFv library was created by using error-prone PCR to create random point mutations in scFv gene sequences. After electroporation, the resulting mutant library was then grown overnight at 30° C. for 16 hours in SDCAA medium and then switched into SGCAA medium at 30° C. for another 16 hours. The mutant library was then sorted through MACS (immunomagentic column, Miltenyi Biotec) with CD19-Fc as the capture antigen to downsize the library and to increase the population of mutants that could bind to CD19-Fc. The strongest binders were then selected by double staining the pools with Anti-c-Myc-Alexa 488 and CD19-Fc/Anti-Hu-Fc and selecting for the binders that had the highest binding affinities as well as c-Myc expression levels. This process was then repeated two more times, until flow cytometry of yeast particles with fluorescently tagged antigen yielded average binding affinities of the mutant pools that were increased over the starting construct. Binding affinities were estimated by flow cytometry of yeast pools using decreasing amounts of labeled CD19.

B1: human anti-CD19 ScFv binder M19217 (founder clone) (scFv)
chain: EVQLVQSGAEVKKPGASVKVSCKASGYTFTSYYMHWVRQAPGQGLEWMGIINPSGGSTSYAQKFQGRVTMTRDTSTSTVYMELSSLRSEDTAVYYCARSDRGITATDAFDIWGQGTMVTVSSGGGGSGGGGSGGGGSQSVLTQPPSVSVAPGQTAKITCGGSDIGNKNVHWYQQKPGQAPVLVVYDDYDRPSGIPERFSGSNSGDAATLTISTVEVGDEADYFCQVWDSSGDPYWVFGGGTQLTVLG
EC50: 0.5 µg/mL

B2: human anti-CD19 ScFv binder M19217-1 (scFv, V domains shown)
VH: EVQLVQSGAEVKKPGASVKVSCKASGYTFTSYYMHWVRQAPGQGLEWMGLINPSGGSTSYAQKFQGRVTMTRDTSTSTVYMELSSLRSEDTAVYYCARSDRGITATDAFDIWGQGTMVTVSS
VL: QSVLTQPPSVSVAPGRMAKITCGGSDIGNKNVHWYQQKPGQAPVLVVYDDYDRPSGIPERFSGSNSGDAATLTISTVEVGDEADYFCQVWDGSGDPYWMFGGGTQLTVLG
notes: also called scFv of LTG2065
EC50: < 0.01 µg/mL

B3: human anti-CD19 ScFv binder M19217-2 (scFv)
chain: B1 chain with L45F, I50L, G56S, S85N, S148P, T158I, S229G
EC50: < 0.01 µg/mL

B4: human anti-CD19 ScFv binder M19217-7 (scFv)
chain: B1 chain with K12N, I50M, A105S, V149L, D189N, A206S, S229G
EC50: < 0.01 µg/mL

B5: human anti-CD19 ScFv binder M19217-23 (scFv)
chain: B1 chain with S31G, M48I, I50L, A61E, T69A, N166D, S229G, S230I
EC50: < 0.01 µg/mL

B6: human anti-CD19 ScFv binder M19217-29 (scFv)
chain: B1 chain with I50M, V169A, P195S, S229G, Y234F
EC50: < 0.01 µg/mL

B7: human anti-CD19 ScFv binder M19217-38 (scFv)
chain: B1 chain with K13R, Q43R, I50L, K63E, T74M, T104S, T154M, D189N, S229G, V245D
EC50: < 0.01 µg/mL

B8: human anti-CD19 ScFv binder M19217-40 (scFv)
chain: B1 chain with K13R, E46V, I50L, I157T, F223V, S229G
EC50: < 0.01 µg/mL
